Data from the DeepSol protein solubility set.

Experiment: soluble on expression in E. coli; label from the status in PepcDB or PDB records

Sequence | soluble on expression in E. coli
MSLEHLHELVGSVDVVLSDIWGVVHNGLESFPDACAALKTARDQGRTVVLITNAPRPADSVQRQLRKLDVPDDCYDAIVSSGDLTRIYVAEHPGQSIYWLGPDRDNSIYRGLDAVLTPLEKADYIICTGPFDDETESAEDYREMMGQALERKLTLVCANPDIVVERGDRLIYCAGAIAELYRELGGDVIFYGKPHRPIYDRAMALAREIRGVDTPVQRVLAIGDSVRTDLAGAQGYGIDLLFVTRGIHADAFEGIDRLDTAAVNELFGHPPLALTRELREGHHHHHH | soluble
MSLEKYNAEVERDPFANRVFEQEEKRELTSEQRIAYENIKEKINNSEQRTFLLHGVTGSGKTEVYLQTIEEVLNKGKEAMMLVPEIALTPQMVLRFKRRFGDDVAVLHSGLSNGERYDEWQKIRDGRARVSVGARSSIFAPFKNLGIIIIDEEHESTYKQEDYPRYHARDIAEWRSQFHQCPLVLGSATPSLESYARTEKGVYQLLTLPTRVNQQALPSIDIVDMREELSAGNRSMFSNELREAIEDRLRKNEQIVLFLNRRGYASFMLCRDCGYVPQCPHCDISLTYHKSTDQLKCHYCGYHEVPPNKCPNCESSHIRQVGTGTQRVEEILQQEFEEARIIRMDVDTTSRKGAHEKLLNEFEEGKGDILLGTQMIAKGLDYPNITLVGVLNADTMLNLPDFRASERTYQLLTQVAGRAGRHDKPGRVIIQTYNPEHYAIQDVQKNDYLTFYQKEMEYRKIGKYPPYYFLINFTISHKNMKKVMEASKHIHQILLQHLTDRALVLGPSPAAIARINNEHRFQILVKYKSEPELLKALQYLDDYYHEAYLKNKLALKIDINPQILMEGHHHHHH | soluble
MSLELKVSLDNITMTAYIKSKKYLAMKQLIETHLAITVQTAMTDMFRATTGDGIHVVLHMNYDKQKGQDRKARPFRLEFNPNKLRLVDSEIIDTIIPFLEDISISRADLAFDLFEVDCSEFVLEKKGRPTATKEFRSSTGTLETKYLGAPRSEKQVRLYNKKKEQLQNGTDKDKDFASQFKHWWRLEFQLRSRSIDEIFEVIDTIIFKPFNLKGLSIETQIYLTALIHDKNIWKKLHRNTRARYKKILETHQTSDTDYLGLLKDLLKHERPRLENQLAYYGGRIDKNSFQPFCEGHHHHHH | soluble
MSLELPILPTSVIGSYPKPRWLLRMYKLRELGKIPEEDFKEAVRDASISVLREHERAGIDIPWDGEMGRSEMTEYFTSKIKGFKFYGPVRVWGNAYFNKAAAVDKLEYEEPLVLDEFLWVKENTTREIVKIPITGPYTIAEWSFNEYYPDKESFVMDLAEIINKELKVLEKHGAKFVQLDEPAMLNHPSEVPLAVDAINRAVKGIKMKVGLHVCYSNYNLLADYFDEIKVTQFALEFANRNFRDMDFLKKLSNKELGFGVVDVHNPRVESVEEIRQAIKKVFTYLEPEWVYINPDCGLKLLDRKIAYQKLVNMVQAVRGVRKELEKEGKTTIEFRTLKDIEGHHHHHH | soluble
MSLELVSFVKSHIDQAVYFSTITSNPIEFNLPESLSLDTTDIENDIKTSCDEIFYSTGSYIPPMLNTLEQHLNLRIEYFNNLIEFTKINFNYKISPTVKLYLIEKISILKCCLALFKYISDKAILSNIWRDLVLNSFNDSSLEEFVLGKLDEFPRLFTIFLNDLSAKIVGFNDVEEKVKIVDLLITCVYDAVLENCEKSIRYDALQLDPLELDNKPMWFTNLTNIKAMNNIFFSFIFPDNDLSVENKQRLLTVVKLLYYVINQNMIWHKSMKQIETEEYKEVEALYNDNHANWIHVLCNIGVHEEALQICEFYHDLGGLVEILEKLDFEISRELYDQYFKMFGYEFATILFEYYINAKDLKALFFKFPNHHDLLNKFLLSSPPKYYKYAWIQEIIDNDYRKASDILTTLSVGEAGDGCEISERQLHLNIAKLSGLVDENFDANQMIEIQRDIDTIDHQTRIKKLLEEDPTGISMNQAFANNEFGEKFQETKYCIQNDKSINIKYIIDMLSMMDSVENLYEALKLTCIYRHSLGYEVSKYFQQSIWRRCIIEESKDGVIQLEGENSKIYQLLVKYFEGKLYEYDCKLPFVSFLMDRIGISMNFLSIIYGNDNNVLVSISDSIEREYHDLIRIGDTLESQLSTIIGSANESTGNECTINYETKSIEYEGHHHHHH | soluble
MSLEMEHINENTIRVLIGNEDLADRGITFLDLLGNHKDVENFFYSILEEVDVEDEFQGSEAVTFQVLPKNDGLELFISKNVAMDDLSSLEGLSEVNADVSELIRKQIEADKAAADELDEMEATDETNRNVIFELDNFEAMIQLSKEVFMQSVLTNLYTYNDRYYLQVLFLTDELEKTNVDNEIAQILEFAHKTTVTQDTLVEYGTCIMERSALELTRYYFNDEGHHHHHH | soluble
MSLEMYPKIEDIKASYQNYCEFLEKVNTINLLKHKGKYIHYEDFNDNQIKRKIEKLESSILKTNVKYQKGAYIIYYKLRPGVIEFLRTMSEKYEIYLYTMGTLEHAKSCLFLLDPLRKFFGNRVFSRKDCLNSLKHLNKILPTYRSVSICIDDSDYIWKENSSCIKVHGYNYFPDINFFEDIKRAPYFLTKFFTFAQSYLNFTSNIYRFINFKCSEHEEFLKEGHHHHHH | not soluble
MSLENKIVKIEPQSIAEEMGIEVGDSLISINGKEVKDIIDYRFLMADEYVVVKIQKTNKEIWELEIEKEYDEKLGVEFESGILDSAKSCRNKCIFCFIDQLPKGMRKTLYFKDDDSRLSFLQGNFVTLTNMSDDDIDRIIKYRISPINISVQTTNPELRKKMLNNKFAGNLMERMKKLSNAGITMNCQVVLCPGINSGEEFSKTVNDLYKLYPSVKNIAGVPVGITSYREGLFNMVPYDSQSALKEIENIKPIQEKFIKEIGSPFVRLSDEFYVLSGIPIPKAEFYGEFEQFEDGIGMIRTFRDNINMSLDNLKDGIHKSFTMVTGVLAYEEIENAAKMLMEKSRGLKINVIKVINEFFGEKITVAGLLTGRDILNYLKRNEVGDYIILPSNMLKSDEDVFLDDVKVLDIEKELNKKVLVCNYSGEDLVDIINKNGREEEGHHHHHH | not soluble
MSLENTEKLKNSKEVIAYIAECFPNCFTLEGEAKPLKIGIFQDLADRLNDDPKVSKTQLRAALRQYTSSWRYLHGVKPGATRVDLDGNPCGELEEQHVEHAQAALAESKARVEARRKEQVKKVREEAKANKPKAKKPQQARRPQNAPKVEKKPVETRALAASELNVGNQVNVNMGKGNMAATIVEVNKEDVRVQLANGLQMVVKAEHLRAEGGSHHHHHH | soluble
MSLEPIGNVIKKIVKERNLGSKEDILNQVLQDPDINAFLQANKAKIDQKMIKNSMSGLYEFYSQKRNPSKVMAGYAPQLFLNGKVIDVRYAPTQAKVAQDRKRAAKKRLHLIDLPGRLHDVELSKIDITDDRNQVLTLIYDFLNKYSKDSHQQGLYLSGDFGVGKTYILAGLANYVVTNMEKDVVFLHVPTFIAGLASHFGDNSLQDEIRRLSECDLLILDDIGAETLSQWSRDDVLGVILQARMDNVLPTFFSSNLDMEALESHFEETRNATDPVKARRLMQRIRFLAKEVVVSGPDRRNSLREGHHHHHH | soluble
MSLEVYFSGTIERIIFENPSNFYRILLLEIDDTDAEDFDDFEIIVTGTMADVIEGEDYTFWGQIVQHSKYGEQLQISRYDRAKPTSKGLVKYFSSSHFKGIGLKTAQKIVDTYGENTIDEILQHPEKLEGIAGLSAKNREAFVSTLRLNYGTEMILAKLANYGIPNKLAFQIQDFYKEETLDVVENYPYQLVEDIKGLGFTIADQLAEELGIESQAPERFRAGLVHSLFQACMETGDTYVEARDLLEQTLTLLESSRPVELDPSQVAQELSYLIEEDKVQQIDTKIFDNSLFFAEEGIRSHLVRILEKGKQKSHDLETIQKHITTVEQELGIEYDNIQKQAICDAIQNKVFILTGGPGTGKTTVINGIIAVYALLEGLDFRKKSNLPILLAAPTGRAARRMNELTGLPSATIHRHLGMTGDDDTSHLEDYLDADFIIVDEFSMVDTWLANQLFSNISSNSKILIVGDSDQLPSVSPGQVLADLLHIPLIPQTRLEKIYRQSKESTIVTLASQIRQGILPADFTQKKADRSYFEIASGHIPATIEKILGAALRNGIPARDIQVLAPMYRGTAGIDAINQLMQDLLNPPQKDQLSFEAPQCHYRKRDRVIHLVNDAEINVFNGDLGAITDLIPGKYTESKQDEIVIDFDGNEVSYPRNEWYKIRLAYAMSIHKSQGSEFPVVILPITSASRRMLERNLIYTAITRAKSKLILLGELQAFDYATQHIGTARKTYLIERFSDLLENVEEKQQAVSETVTSSASEQSYILTEENWDRIPAMIGITDTDLKEIFGKEGHHHHHH | soluble
MSLFHFVIKGTGFSSKNLQEIKVYEETLFCIDEAGVIQEIIEPDAEAYETVLAEQKEAQRFQELPQDSYLLPGFVDLHVHAPQWAQSGTALDIPLYEWLNTYTFPLESKFADLAFAQQVYDELVTQLLANGTTTALYFATIHYEASRRLAEICAEKGQRGLIGKVVMDDLNENPEYYRDQTTQQALEETERFIQEIQTLAQQTKQGVYPVVTPRFIPSCTEEALKGLGELAAKYQVHVQSHCSESDWEHQFVQERFEKNDAQALNDFGLLTEKAVMAHAGFLEEADMNLFHETGTAVAHCPISNAYFGNAVTPIAKLVHQHQVEVGLGSDLSGGFSPSLFDNLKQAVISSRMLEDGVDATKKPEVRGVKTARITVNEAFYLATAGGGQALSLPIGKLEKGYAWDVQIINTSLSQARIPKNPGESLLDIFQKILYLARPENIREVWVQGEKVHDKNLMSATKGVEGHHHHHH | soluble
MSLFLDVQGTLISDHDKSLIHGAKELIDFLNAKNLPYLIITNNTKKLDFLEKLQQKGLVIKENAYIDPFSVLKHLLRPCKVAAFGADEFVKSLENLGFELDFVNPSAVLVASYDDFKFKDFATMIELARREVRFIAMHETSIYKKDGRPYPGVGSIMAMLKNAIDFEYEVVGKPSIAFYKEALNLIRRQNSKIDFEDIKIISDDFRGDLLKAKELGMKTLLVLSGKISDTKGLDTDLLDGVYPSVFEFLKDLKCQIEGHHHHHH | not soluble
MSLFQMSYYYSGLGWDFIQHVDQTNGVLNVVSPDFFYIRKDGSLLLRSANPDVIKALHRRKLKVVPFLSNHWDQDLGRFALMNRVLLAKQISHAIEELDLDGVNIDIENLTEKDRNLFTDFIRLVRKSIPRHKEVSVAVAANPFGWTKGWHGSYDYEYLAKYADYLMVMAYDESRLAGPTASVGWVEKSIQYVLTQKISPQKLVLGLPFYGRCWMEGQSASQAIPLYLVVSKKAEGHHHHHH | not soluble
MSLFTGPIVAVGEYVEGLGEGRRYVSIPYYRREIERVIGARPFPGTFNVRVEREERESLRELASSYGYRIEPHGEYGGAWLYPCLVNGRPAWLVFPDLTEHRDQVELISETELRRELNVIHGDMVKIEVWGPSTWKLARRLTCGPSGGREGHHHHHH | soluble
MSLGAFLDKPKTEKHNAHGAGNGLRYGLSSMQGWRVEMEDAHTAVVGIPHGLEDWSFFAVYDGHAGSRVANYCSTHLLEHITTNEDFRAAGKSGSALELSVENVKNGIRTGFLKIDEYMRNFSDLRNGMDRSGSTAVGVMISPKHIYFINCGDSRAVLYRNGQVCFSTQDHKPCNPREKERIQNAGGSVMIQRVNGSLAVSRALGDYDYKCVDGKGPTEQLVSPEPEVYEILRAEEDEFIILACDGIWDVMSNEELCEYVKSRLEVSDDLENVCNWVVDTCLHKGSRDNMSIVLVCFSNAPKVSDEAVKKDSELDKHLESRVEEIMEKSGEEGMPDLAHVMRILSAENIPNLPPGGGLAGKRNVIEAVYSRLNPHRESDGGAGDLEDEGHHHHHH | soluble
MSLGAGQPLGGYAEDLEGRQADLPKYSRANVRIVFAAVFPESNVYQGGEGYPTPSSSRLLLLDQVKTYYALSSIHGVEIIESWRSAQEVLEAPRWRLGLLLHLEGADALADILDLELLHRLGFRSLGLTWNHDNRWAASCKTRRDYGLTQSGEDLVKKAAELGVIIDLAHASDKTVADAASASPKPVIVSHANFRWKVDSPRNVGEEAVEAVVSKGGVIGYSLISTLITRGRHPTLHDVASQMAEFVEVYGHRHLAIGTDYHGLLDIRPPTGLESIDRLPRLLEALADAGLSDRQIEAIAYGNIARVIREVLPGSEGHHHHHH | soluble
